Results from paper PMC5638086, “Assessment of the protein interaction between coagulation factor XII and corn trypsin inhibitor by molecular docking and biochemical validation” (Journal of Thrombosis and Haemostasis, 2017).
Where two headings read alike, the source gives them in different places.

Experiments:
[1] = biological target: Full length activated FXIIa (α‐FXIIa) (UniProt P00748)
Target sequence in this assay (P00748 20-615): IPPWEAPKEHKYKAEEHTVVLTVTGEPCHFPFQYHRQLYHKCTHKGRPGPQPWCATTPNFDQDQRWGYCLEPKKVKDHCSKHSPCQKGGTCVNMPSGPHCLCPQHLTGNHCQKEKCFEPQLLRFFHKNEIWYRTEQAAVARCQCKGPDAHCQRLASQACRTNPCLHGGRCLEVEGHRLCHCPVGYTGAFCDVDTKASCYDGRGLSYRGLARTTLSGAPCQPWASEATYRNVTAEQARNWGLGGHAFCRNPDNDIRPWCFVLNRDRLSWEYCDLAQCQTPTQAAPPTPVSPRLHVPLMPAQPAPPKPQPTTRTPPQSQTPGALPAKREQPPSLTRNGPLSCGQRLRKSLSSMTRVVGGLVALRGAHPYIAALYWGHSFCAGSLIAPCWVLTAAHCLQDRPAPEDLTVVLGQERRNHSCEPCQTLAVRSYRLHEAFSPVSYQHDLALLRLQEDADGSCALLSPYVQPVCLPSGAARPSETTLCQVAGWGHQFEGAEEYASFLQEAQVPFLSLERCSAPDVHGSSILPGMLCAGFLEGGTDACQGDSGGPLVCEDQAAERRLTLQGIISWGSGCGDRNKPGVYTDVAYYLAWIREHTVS

[2] = biological target: Full length activated FXIIa (α‐FXIIa) (UniProt P00748); remark: listed apart in the source
α‐FXIIa [3] = biological target: T1, α‐FXIIa (Homo sapiens, UniProt P00748); experiment: Kinetic analysis of the CTI inhibitory mechanism (Michaelis–Menten / Lineweaver–Burk, S‐2302); type: biochemical; conditions: 0.1 to 0.6 mM substrate peptide, 10 nM α‐FXIIa
T1 construct: purchased Enzyme Research Laboratories (Swansea, UK)
T1 sequence (P00748 373-615 limits assumed): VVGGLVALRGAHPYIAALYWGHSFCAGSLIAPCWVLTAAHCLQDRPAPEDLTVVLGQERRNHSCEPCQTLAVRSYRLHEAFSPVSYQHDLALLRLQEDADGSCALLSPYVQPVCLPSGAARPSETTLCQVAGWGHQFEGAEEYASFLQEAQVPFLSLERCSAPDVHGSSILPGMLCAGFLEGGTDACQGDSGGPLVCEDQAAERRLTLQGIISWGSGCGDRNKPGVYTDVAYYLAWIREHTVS
T1 sequence (P00748 20-372 partner limits assumed): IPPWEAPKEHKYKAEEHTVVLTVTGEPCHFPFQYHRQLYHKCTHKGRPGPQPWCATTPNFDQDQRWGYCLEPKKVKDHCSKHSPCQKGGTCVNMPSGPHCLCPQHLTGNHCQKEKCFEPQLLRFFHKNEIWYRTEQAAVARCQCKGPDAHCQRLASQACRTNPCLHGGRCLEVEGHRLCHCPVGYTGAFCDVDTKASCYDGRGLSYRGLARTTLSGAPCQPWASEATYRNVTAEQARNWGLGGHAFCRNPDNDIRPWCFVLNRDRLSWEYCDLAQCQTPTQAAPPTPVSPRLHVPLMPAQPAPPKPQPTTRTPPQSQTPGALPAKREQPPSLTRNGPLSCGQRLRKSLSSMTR
Description: (§1) The enzymatic activity of α‐FXIIa was measured by monitoring the amount of pNA chromophore released from substrate H‐D‐Pro‐Phe‐Arg‐pNA (S‐2302). Assays were performed in a 100‐μL volume at 33 °C in 96‐well plates in a Perkin Elmer (Seer Green, UK) Envision plate reader, and pNA release was followed over a period of 6 h by reading the absorbance at 405 nm. Absorbance values were converted to pNA concentrations by comparison with a standard curve obtained under exactly the same instrument conditions. All absorbance values were within the linear measurement range of the instrument. Initial rates were calculated on the basis of the first 30 min of incubation. To assess the K M, concentrations of substrate peptide between 0.1 mM and 0.6 mM were incubated with 10 nM α‐FXIIa, enzymatic activity was measured as described above, and data were analyzed by non‐linear regression with the Michaelis–Menten algorithm (GRAPHPAD PRISM, version 6.04). To assess the inhibitory mechanism of CTI, 30 nM CTI was incubated with these same concentrations of substrate peptide, the reaction was initiated by the addition of 10 nM α‐FXIIa, enzymatic activity was measured as described above, and data were analyzed by non‐linear regression with the Michaelis–Menten algorithm (GRAPHPAD PRISM, version 6.04) and by linear regression after Lineweaver–Burk transformation. To assay inhibitors, concentrations of CTI variant proteins between 10^−8 M and 10^−5 M or concentrations of peptides between 10^−6 M and 10^−3 M were incubated with 200 μM substrate peptide, the reaction was initiated by addition of 10 nM α‐FXIIa, enzymatic activity was measured as described above, and IC50 values were determined by non‐linear regression analysis (GRAPHPAD PRISM, version 6.04) using the log[inhibitor] versus response – variable slope algorithm with a bottom constraint.
Figure S3: analysis of CTI inhibitory mechanism
0.1 to 0.6 mM of substrate peptide was incubated without (open symbols) or with 30 nM CTI (closed symbols), after which 10 nM α -FXIIa (equalling to 1 pmol of enzyme) was added and enzyme activity was measured as described in the method section. Data were analysed by non-linear regression (top left panel) and linear regression after Lineweaver Burk […]

FVIIa = conditions: cited from earlier work
thrombin = conditions: previous reports; cited from earlier work
FIXa = conditions: cited from earlier work
Text: (§2) The canonical docking pose that we observed for FXIIa–CTI is similar to the trypsin–CTI and HGFA–CTI complexes predicted by CLUSPRO, albeit that there are fewer interactions overall for trypsin and HGFA, owing to Asp60A (H1 pocket) being absent in these proteases.

kallikrein = conditions: cited from earlier work
Text: as §2

[4] = biological target: Full length activated FXIIa (α‐FXIIa) (UniProt P00748); remark: listed apart in the source
α‐FXIIa [5] = biological target: T1, α‐FXIIa; experiment: α‐FXIIa enzymatic assay (S‐2302 chromogenic substrate cleavage, pNA release); type: biochemical; conditions: CTI variant proteins 10^−8 M to 10^−5 M, 200 μM S‐2302, 10 nM α‐FXIIa, 33 °C, initial rate of first 30 min, A405; SE of the fit, n = 3–5 independent experiments; SEM
Description: as §1

FXIa = conditions: previous reports; cited from earlier work

Molecule: RWYVTSRTAGIGPRLPWPELKRR [CTI(21–43) synthetic peptide]
- IC50 of inhibition of α‐FXIIa enzymatic activity (S‐2302 cleavage) [1]: 460 µM
- pIC50 of inhibition of α‐FXIIa enzymatic activity (S‐2302 cleavage) [1]: 3.34

Molecule: CRWYVTSRTAGIGPRLPWPELKRRC [CTI(20–44) synthetic peptide]
- IC50 of inhibition of α‐FXIIa enzymatic activity (S‐2302 cleavage) [1]: 290 µM
- pIC50 of inhibition of α‐FXIIa enzymatic activity (S‐2302 cleavage) [1]: 3.54

Molecule: YVTSRTAGIGPRLPWPELKRR [CTI(23–43) synthetic peptide]
- IC50 of inhibition of α‐FXIIa enzymatic activity (S‐2302 cleavage) [1]: 1100 µM
- pIC50 of inhibition of α‐FXIIa enzymatic activity (S‐2302 cleavage) [1]: 2.94

Molecule: RWYVTSRTAGIGPRLPWPELKR [CTI(21–42) synthetic peptide]
- IC50 of inhibition of α‐FXIIa enzymatic activity (S‐2302 cleavage) [1]: 200 µM
- pIC50 of inhibition of α‐FXIIa enzymatic activity (S‐2302 cleavage) [1]: 3.7

B1: commercial corn trypsin inhibitor (CTI) (natural protein)
chain: SAGTSCVPGWAIPHNPLPSCRWYVTSRTCGIGPRLPWPELKRRCCRELADIPAYCRCTALSILMDGAIPPGPDAQLEGRLEDLPGCPREVQRGFAATLVTEAECNLATIS
- IC50 of inhibition of α‐FXIIa enzymatic activity (S‐2302 cleavage) [2]: 0.11 µM
- pIC50 of inhibition of α‐FXIIa enzymatic activity (S‐2302 cleavage) [2]: 6.97
- Inhibitory mechanism (α‐FXIIa [3]; 30 nM CTI): competitive inhibitory mechanism
- Ki (α‐FXIIa [3]; 30 nM CTI, Fig. S3): 0.029 ± 0.004 µM
- kcat (α‐FXIIa [3]; in the presence of 30 nM CTI, Fig. S3): 15 ± 2
- Km (α‐FXIIa [3]; in the presence of 30 nM CTI, Fig. S3, read-out: Km app): 301 ± 72 µM
- Inhibition of FVIIa, in words (FVIIa): does not inhibit
- Inhibition of thrombin, in words (thrombin): does not inhibit
- Inhibition of FIXa, in words (FIXa): does not inhibit
- Inhibition of kallikrein, in words (kallikrein): does not inhibit
- pIC50 of inhibition of α‐FXIIa enzymatic activity (S‐2302 cleavage) [4]: 6.95
- pIC50 ± SE (α‐FXIIa [5]): 6.97 ± 0.04
- Inhibition of FXIa, in words (FXIa): weakly inhibits
